Measured values: patent US20250289899A1 (Genmab, published 2025)

Biological target: T1, human CD27, full length, on cells (T cells, transfected HEK293F cells, Daudi cells, NFκB-luc2/CD27 Jurkat … (human, UniProt P26842 20-240))
T1 construct: Residues 1-19 are stated to be the signal peptide; also called TNFRSF7
T1 sequence: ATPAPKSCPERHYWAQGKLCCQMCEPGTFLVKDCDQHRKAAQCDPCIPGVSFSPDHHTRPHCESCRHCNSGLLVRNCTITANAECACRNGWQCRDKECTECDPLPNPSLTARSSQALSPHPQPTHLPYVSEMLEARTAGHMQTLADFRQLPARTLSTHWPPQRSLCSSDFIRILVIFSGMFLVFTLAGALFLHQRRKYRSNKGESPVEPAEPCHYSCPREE
Test: flow cytometry on CD8+ T cells in human PBMC, FITC goat anti-human IgG F(ab')2, median FITC
Method: Binding of IgG1-CD27-A-P329R-E345R to CD27 on human healthy donor T cells was characterized in more detail using flow cytometry. Anti-HIV gp120 antibody variant IgG1-b12-P329R-E345R was used as non-binding control antibody (ctrl). Human PBMCs were isolated from buffy coats obtained from human healthy donors. PBMC (1×10⁵ cells/well) in FACS buffer were added to polystyrene 96-well round-bottom plates (Greiner bio-one, Cat #650101) and pelleted by centrifugation at 300×g for 3 min at 4° C. The cells were resuspended in 50 μL/well serial antibody dilutions in FACS buffer (range 0.0015 to 10 μg/mL in 3-fold dilution steps) and incubated for 30 min at 4° C. Cells were pelleted, washed twice with FACS buffer and incubated in 50 μL/well with FITC-conjugated secondary antibody (FITC AffiniPure F(ab′)₂ fragment goat anti-human IgG, F(ab′)₂ fragment specific, Jackson ImmunoResearch, Cat #109-096-097, diluted 1:100) for 30 min at 4° C. in the dark. […] The samples were measured by flow cytometry on an LSRFortessa (BD) flow cytometer and analyzed using FlowJo software. Binding curves were analyzed using non-linear regression (sigmoidal dose-response with variable slope) using GraphPad Prism 8 software.

B1: IgG1-CD27-A-P329R-E345R (antibody)
heavy: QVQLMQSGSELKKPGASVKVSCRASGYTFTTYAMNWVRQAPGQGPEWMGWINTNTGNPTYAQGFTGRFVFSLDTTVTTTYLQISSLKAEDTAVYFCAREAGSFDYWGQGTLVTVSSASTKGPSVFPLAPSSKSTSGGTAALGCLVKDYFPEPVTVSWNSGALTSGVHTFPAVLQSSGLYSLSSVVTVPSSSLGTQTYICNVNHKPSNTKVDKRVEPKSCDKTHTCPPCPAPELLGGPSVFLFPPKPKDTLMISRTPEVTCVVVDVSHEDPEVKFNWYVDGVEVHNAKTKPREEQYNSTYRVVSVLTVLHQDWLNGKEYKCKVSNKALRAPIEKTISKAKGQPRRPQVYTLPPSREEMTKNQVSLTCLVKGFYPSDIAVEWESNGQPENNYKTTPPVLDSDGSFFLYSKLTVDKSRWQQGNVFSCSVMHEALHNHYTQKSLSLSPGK
light: QSALTQPASVSGSPGQSITISCTGTSSDVYYYNYVSWYQQHPGRAPKLVIYDVSNRPSGVSNRFSGSKSGNTASLTISGLRAEDEADYYCSSYTVNRVWVFGGGTKLTVLGQPKAAPSVTLFPPSSEELQANKATLVCLISDFYPGAVTVAWKADSSPVKAGVETTTPSKQSNNKYAASSYLSLTPEQWKSHRSYSCQVTHEGSTVEKTVAPTECS
notes: also called IgG1-CD27-A-E345R-P329R
EC50 (read off the curve): ~0.03 µg/mL
